Columns and labels:
Assay in all cases: pull-down binding Z-score (relative to library population); higher = stronger binding
[1] = test system: G-clamp-N3 (biotin conjugate); conditions: RNA library: Library-1 (pre-miRNA loops + repeats)
Summary of the method: (§1)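 Streptavidin beads with 100 pmol of biotin-conjugated small molecule were incubated for 60 min at 25 °C with 1 μg of heat-folded Cy5- or Cy3-end-labelled RNA library in phosphate/NaCl/KCl buffer. Bound RNA was eluted in hot SDS after three washes and hybridised to a DNA barcode microarray at 55.5 °C for 20 h. Each binding score is a library-referenced Z-score, computed after beads-only subtraction and a trimmed mean of barcoded replicate probes.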

[2] = test system: TO-3-N3 (biotin conjugate); conditions: RNA library: Library-2
Summary of the method: as §1

[3] = test system: TO-3-N3-2 (biotin conjugate); conditions: RNA library: Library-2
Summary of the method: as §1

TO-N3 (biotin conjugate) = conditions: RNA library: Library-2
Summary of the method: as §1

[4] = test system: TO-N3-2 (biotin conjugate); conditions: RNA library: Library-2
Summary of the method: as §1

UGCUGUUGCUGUGAAAGCUGA [hsa-mir-6823]
pull-down binding Z-score [1]: -0.619
pull-down binding Z-score [2]: 0.045
pull-down binding Z-score [3]: 0.304
pull-down binding Z-score (TO-N3 (biotin conjugate)): 0.559
pull-down binding Z-score [4]: 0.705

UGCUGUUGGAGACUCGAUUGUUGGUGACAGCGAAAGAACGAUAACAAA [hsa-mir-3655]
pull-down binding Z-score [1]: -1.76
pull-down binding Z-score [2]: -0.405
pull-down binding Z-score [3]: -0.149
pull-down binding Z-score (TO-N3 (biotin conjugate)): 0.231
pull-down binding Z-score [4]: 1.04

UGCUUCAGUUUCACUCCAAGCA [hsa-mir-4771-2_4771-1]
pull-down binding Z-score [1]: -0.932
pull-down binding Z-score [2]: -0.0351
pull-down binding Z-score [3]: -0.126
pull-down binding Z-score (TO-N3 (biotin conjugate)): -0.204
pull-down binding Z-score [4]: -0.141

UGCUUCCACAUAGCAGCA [hsa-mir-4752]
pull-down binding Z-score [1]: -0.248
pull-down binding Z-score [2]: -0.423
pull-down binding Z-score [3]: -0.24
pull-down binding Z-score (TO-N3 (biotin conjugate)): -0.62
pull-down binding Z-score [4]: -0.597

UGCUUGACCUGAAUGCUACAAGGCA [hsa-mir-103b-2]
pull-down binding Z-score [1]: -1.12
pull-down binding Z-score [2]: -0.324
pull-down binding Z-score [3]: -0.122
pull-down binding Z-score (TO-N3 (biotin conjugate)): -0.303
pull-down binding Z-score [4]: -0.0962

UGCUUGAUCCAUAUGCAACAAGGCA [hsa-mir-103b-1]
pull-down binding Z-score [1]: -0.604
pull-down binding Z-score [2]: 0.453
pull-down binding Z-score [3]: 0.244
pull-down binding Z-score (TO-N3 (biotin conjugate)): 0.57
pull-down binding Z-score [4]: 0.715

UGCUUUACUUUUAAUGGCA [hsa-mir-548k]
pull-down binding Z-score [1]: -0.352
pull-down binding Z-score [2]: -0.819
pull-down binding Z-score [3]: -0.358
pull-down binding Z-score (TO-N3 (biotin conjugate)): -1.15
pull-down binding Z-score [4]: -1.34

UGCUUUGUUAGAAACAAAAAGCA [hsa-mir-4679-1]
pull-down binding Z-score [1]: 0.865
pull-down binding Z-score [2]: 0.632
pull-down binding Z-score [3]: 0.248
pull-down binding Z-score (TO-N3 (biotin conjugate)): 0.447
pull-down binding Z-score [4]: -0.462

UGCUUUUUGUUUCUAACAAAGCA [hsa-mir-4679-2]
pull-down binding Z-score [1]: -0.591
pull-down binding Z-score [2]: 0.272
pull-down binding Z-score [3]: -0.407
pull-down binding Z-score (TO-N3 (biotin conjugate)): 0.0252
pull-down binding Z-score [4]: -1.25

UGGAAGCUCCAGGUGCCAACCACCUGCCUCUA [hsa-mir-6731]
pull-down binding Z-score [1]: -0.826
pull-down binding Z-score [2]: 0.00854
pull-down binding Z-score [3]: -0.134
pull-down binding Z-score (TO-N3 (biotin conjugate)): 0.231
pull-down binding Z-score [4]: 0.456

UGGAAGGAAUGGGAUCUACUUCCA [hsa-mir-3612]
pull-down binding Z-score [1]: 0.981
pull-down binding Z-score [2]: 0.389
pull-down binding Z-score [3]: 0.46
pull-down binding Z-score (TO-N3 (biotin conjugate)): 0.285
pull-down binding Z-score [4]: -0.214

UGGACAGAAAUUUCCUUUUGAGGAAAUCUUUCCC [hsa-mir-4308]
pull-down binding Z-score [1]: -0.543
pull-down binding Z-score [2]: -0.486
pull-down binding Z-score [3]: -0.309
pull-down binding Z-score (TO-N3 (biotin conjugate)): -0.671
pull-down binding Z-score [4]: -0.367

UGGACCUCAGGGAAGAGGCUG [hsa-mir-4673]
pull-down binding Z-score [1]: 0.343
pull-down binding Z-score [2]: -0.608
pull-down binding Z-score [3]: -0.191
pull-down binding Z-score (TO-N3 (biotin conjugate)): -0.619
pull-down binding Z-score [4]: -0.855

UGGACUGUGUACCAAUUUCCA [hsa-mir-194-1]
pull-down binding Z-score [1]: 0.055
pull-down binding Z-score [2]: -0.134
pull-down binding Z-score [3]: -0.379
pull-down binding Z-score (TO-N3 (biotin conjugate)): -0.21
pull-down binding Z-score [4]: -0.471

UGGAGCCAGGGGGCCCAGGUCUACAGCUUCUCCCCGCUCCC [hsa-mir-6752]
pull-down binding Z-score [1]: -0.438
pull-down binding Z-score [2]: -0.138
pull-down binding Z-score [3]: -0.105
pull-down binding Z-score (TO-N3 (biotin conjugate)): 0.328
pull-down binding Z-score [4]: 1.2

UGGAGCUAGACCACAUGGGUUCA [hsa-mir-5100]
pull-down binding Z-score [1]: -0.932
pull-down binding Z-score [2]: -0.111
pull-down binding Z-score [3]: -0.115
pull-down binding Z-score (TO-N3 (biotin conjugate)): -0.131
pull-down binding Z-score [4]: 0.244

UGGAGGAGUCUGGUGGCCUGUUCUCUU [hsa-mir-6754]
pull-down binding Z-score [1]: -0.0952
pull-down binding Z-score [2]: -0.348
pull-down binding Z-score [3]: -0.0949
pull-down binding Z-score (TO-N3 (biotin conjugate)): 0.123
pull-down binding Z-score [4]: 0.707

UGGAGGCUGACCUCUUACUUUCGGUCGGUCUUCUU [hsa-mir-4258]
pull-down binding Z-score [1]: -1.13
pull-down binding Z-score [2]: -0.176
pull-down binding Z-score [3]: -0.43
pull-down binding Z-score (TO-N3 (biotin conjugate)): -0.486
pull-down binding Z-score [4]: -0.435

UGGAGGCUGCAGUGAGCCGAGAUCGAGCCACUGUACUCCA [hsa-mir-1273e]
pull-down binding Z-score [1]: 0.0244
pull-down binding Z-score [2]: 0.259
pull-down binding Z-score [3]: -0.0556
pull-down binding Z-score (TO-N3 (biotin conjugate)): 1.14
pull-down binding Z-score [4]: 1.09

UGGAGGGGGUUUGUUUGCUUAUUCCCCUCU [hsa-mir-6737]
pull-down binding Z-score [1]: 0.456
pull-down binding Z-score [2]: 0.936
pull-down binding Z-score [3]: 0.705
pull-down binding Z-score (TO-N3 (biotin conjugate)): 0.918
pull-down binding Z-score [4]: 0.633

UGGAGGUGAUGGAUGUUUUCCUCCG [hsa-mir-671]
pull-down binding Z-score [1]: -0.238
pull-down binding Z-score [2]: -0.607
pull-down binding Z-score [3]: -0.398
pull-down binding Z-score (TO-N3 (biotin conjugate)): -0.717
pull-down binding Z-score [4]: -0.359

UGGAGGUGAUGGGGGCAGGGGAUGGGUCUCACCCUCCC [hsa-mir-5088]
pull-down binding Z-score [1]: 0.537
pull-down binding Z-score [2]: 3.33
pull-down binding Z-score [3]: 2.93
pull-down binding Z-score (TO-N3 (biotin conjugate)): 3.11
pull-down binding Z-score [4]: 2.59

UGGAGUCAGUAUUGGUCUGGCCA [hsa-mir-4255]
pull-down binding Z-score [1]: 0.114
pull-down binding Z-score [2]: -0.417
pull-down binding Z-score [3]: 0.104
pull-down binding Z-score (TO-N3 (biotin conjugate)): -0.319
pull-down binding Z-score [4]: 0.502

UGGAGUUUUUUUUUCCUCCUG [hsa-mir-4329]
pull-down binding Z-score [1]: -0.689
pull-down binding Z-score [2]: 0.315
pull-down binding Z-score [3]: 0.465
pull-down binding Z-score (TO-N3 (biotin conjugate)): 0.219
pull-down binding Z-score [4]: 0.0619

UGGAUCACGCCGACAACACUGGUCU [hsa-mir-4635]
pull-down binding Z-score [1]: -0.474
pull-down binding Z-score [2]: 0.534
pull-down binding Z-score [3]: 0.163
pull-down binding Z-score (TO-N3 (biotin conjugate)): 0.823
pull-down binding Z-score [4]: 0.76

UGGAUUUGAAAUGGUCCCACUCCUGACGAUCCU [hsa-mir-6748]
pull-down binding Z-score [1]: -0.524
pull-down binding Z-score [2]: -0.358
pull-down binding Z-score [3]: -0.155
pull-down binding Z-score (TO-N3 (biotin conjugate)): -0.0778
pull-down binding Z-score [4]: 0.335

UGGCAAAGACAUAGAUUGUUUAGCUACCCCUUUGCCA [hsa-mir-3119-2]
pull-down binding Z-score [1]: 0.167
pull-down binding Z-score [2]: -0.516
pull-down binding Z-score [3]: -0.495
pull-down binding Z-score (TO-N3 (biotin conjugate)): -0.809
pull-down binding Z-score [4]: -0.58

UGGCAAAGGGGUAGCUAAACAAUCUAUGUCUUUGCCA [hsa-mir-3119-1]
pull-down binding Z-score [1]: 1.24
pull-down binding Z-score [2]: -0.367
pull-down binding Z-score [3]: 0.00332
pull-down binding Z-score (TO-N3 (biotin conjugate)): -0.525
pull-down binding Z-score [4]: -0.555

UGGCAAUUCAGUAAAAAUGCUCA [hsa-mir-6715b]
pull-down binding Z-score [1]: -0.751
pull-down binding Z-score [2]: -0.296
pull-down binding Z-score [3]: -0.14
pull-down binding Z-score (TO-N3 (biotin conjugate)): -0.281
pull-down binding Z-score [4]: 0.143

UGGCACAGAUCCAAUACCUUCUGUCCCC [hsa-mir-6810]
pull-down binding Z-score [1]: -0.424
pull-down binding Z-score [2]: 0.0686
pull-down binding Z-score [3]: -0.361
pull-down binding Z-score (TO-N3 (biotin conjugate)): -0.118
pull-down binding Z-score [4]: 0.171

UGGCCAUUUCCUACCA [hsa-mir-617]
pull-down binding Z-score [1]: -1.33
pull-down binding Z-score [2]: -0.72
pull-down binding Z-score [3]: -0.393
pull-down binding Z-score (TO-N3 (biotin conjugate)): -0.908
pull-down binding Z-score [4]: -0.383

UGGCCUGGCAGUGCGUCGGAAGAACAGGGCGGGUGGGGCC [hsa-mir-4792]
pull-down binding Z-score [1]: 2.84
pull-down binding Z-score [2]: 4
pull-down binding Z-score [3]: 3.11
pull-down binding Z-score (TO-N3 (biotin conjugate)): 3.93
pull-down binding Z-score [4]: 3.57

UGGCGACACUCGCGCCAGCUCCCGGGACGGCUGGGCUCGGGCUGGUCGCCGA [hsa-mir-7845]
pull-down binding Z-score [1]: 3.14
pull-down binding Z-score [2]: 0.0309
pull-down binding Z-score [3]: -0.167
pull-down binding Z-score (TO-N3 (biotin conjugate)): 0.341
pull-down binding Z-score [4]: 1.38

UGGCGGCGGCGAGGACACCGCCGCU [hsa-mir-4469]
pull-down binding Z-score [1]: 0.412
pull-down binding Z-score [2]: 1.53
pull-down binding Z-score [3]: 0.747
pull-down binding Z-score (TO-N3 (biotin conjugate)): 1.4
pull-down binding Z-score [4]: 0.629

UGGCUGCUUGGGUCAAGUCAGCAGCCA [hsa-mir-449b]
pull-down binding Z-score [1]: 1.35
pull-down binding Z-score [2]: -0.201
pull-down binding Z-score [3]: -0.474
pull-down binding Z-score (TO-N3 (biotin conjugate)): -0.272
pull-down binding Z-score [4]: -0.648

UGGCUGUAGGGCAGCAGUCA [hsa-mir-8079]
pull-down binding Z-score [1]: 0.959
pull-down binding Z-score [2]: 1.29
pull-down binding Z-score [3]: 0.456
pull-down binding Z-score (TO-N3 (biotin conjugate)): 1.16
pull-down binding Z-score [4]: 0.479

— the supplement of paper PMC11865577
